{"source": "the DeepSol protein solubility set"}
{"experiment": "soluble on expression in E. coli; label from the status in PepcDB or PDB records"}
{"sequence": "MGSDKIHHHHHHMNAHTNSQANTNVTNVVFRTHTQPDEAASKKAGRPIFTDIEVCDITFPANRQTRATFPAHDAEPNATRESMANGGGVMTYAQVYNAQYLAYKSGVAQPMGGTPLSEAPFLTESKRRELKALNVHTVEALASLDGMPLKQLGMGGRELKNQAVAYIDNAAGSADVTNLAAQVAILTQQLAEERRMREEFTNAALARRERIKAGEEIEDDEQPEDDEPAELEPEPDDFEPVLPPTFAEIDAMDDEALKVYIAKETGSRPRGNPNRDTLVAAAKELAS", "soluble on expression in E. coli": "not soluble"}
{"sequence": "MGSDKIHHHHHHMTARTSALAIEIDRQDRSPIYLQICERFRTAIAAGHLRPGDRVPALRGLALQLNTARGTVEMAYTILVDEGYLQMRGAAGTFVSASLPASVTRPARGGDREQPPAREQGATKSSHALRGRQPATRQLAIAVAMSGEPKLLQPGLPALDAFPRKLWNRLVSRCARSGERAMLAYPDPVGYRALREHIATYLGLSRGVACVPEQVFITAGYRATLELVLRSLASPNDRMWFEDPGYLLARGFLAEVGVNLVPVPIDSEGIDVDRGIALDPLARFALVTPSHQAPLGYTLSLARRMALLDWAAKGSSWIIEDDYDSEFRYVGRPLPALKSLDKDDRVIYCGTFSKVMFPGLRLAYAVVPERAVERVERVACSMNAGSPTLLQAAVADFIEQGHFARHVKRMRALYGQRRTLIAHALEQAFGERMLVELPHGGIQFAVQFAEGPDGPVDDVAVAARARDAGLAVVPLSIWYANGRTRRTPRGLVMGFANVTDAREALRLARTLYGCLTG", "soluble on expression in E. coli": "not soluble"}
{"sequence": "MGSDKIHHHHHHMITVSIVTYKTNLGELSKCLQSLISSLVSQIYIVDNSNERYIADFCQQYPNVIYIGSENVGYGAGHNQALRQVLNSGGKYHLILNSDVYFEPSVLEFLAAYMDAHADVAQVQPNVVYPDGEQQYTCRLLPTPANLIFRRFLPKRMVEKMNIRYQLKFDDHKKEMNVPYHQGSFMFFRLECFKKVGLFDERFFMYPEDIDITRRMHKWYRTMFVPSVTIVHAHRAASYKSKKMLKIHMVNMIKYFNKWGWIVDKERSAWNRKLLEELGYKK", "soluble on expression in E. coli": "not soluble"}
{"sequence": "GMSNALATLASPADDIAFYEERLRAAMLTGDLKGLETLLADDLAFVDHTGCVKTKQTHLEPYRAGLLKLSRLDLSDAVVRAAGEDGRVVVVRAVTAGVYDGEAFTETLRFTRIWRRTQGPAGWKLVAGHCSVIL", "soluble on expression in E. coli": "soluble"}
{"sequence": "EAQIYGYVEKATLIDQNLTLSAKLDTGAKSASLHAVNITEIEKKGIPYLRFTVPTKTGDYSFEGEYVGKVKIKVRSSETNPGLLRTTPIKRPVVLLNIKLGDKVRTIKVNLTNRKRFLYPLLLGRDAIIDFNGAVDPALTFTTKSK", "soluble on expression in E. coli": "not soluble"}
{"sequence": "MGSDKIHHHHHHMMTMRIAMISIHTSPLQQPGSGDAGGMNVYIISIARELARRGVDVDIYTRATRPSQGDVVEVESGLRVINIVAGPYEGLSKEELPTQLAAFAGGVVQFAKCHHMRYDVIHSHYWLSGQVGWLLRDLWNIPLVHTAHTLAAVKNAHRSAGDTEESEARRICEQQLVDNADILVVNTPEETNDLVRHYDANPDSVAVIAPGANVELFTPGTQRNTEQSRRCLGIPLHTKVMAFVGRLQQFKGPEVLLRAVAEMLERDPDRDMRVIMCGGPSGAAATVEHYIELTRSLGIAHRVRFLDPRPPEELVSVYQAADVVAVPSYNESFGLVAMEAQASGTPVVAARVGGLPIAVVDGETGVLVDGHDPIMWADALEQLLDDDPTRQQMGVAAVEHAANFTWAAAAEKLESVYGDAAMLDVAQCHDRYAAGSDRA", "soluble on expression in E. coli": "not soluble"}
{"sequence": "MGSSHHHHHHSSGLVPRGSRHSTLDFMLGAKADGETILKGLQSIFQEQGMAESVHTWQDHGYLATYTNKNGSFANLRIYPHGLVLLDLQSYDGDAQGKEEIDSILNKVEERMKELSQDSTGRVKRLPPIVRGGAIDRYWPTADGRLVEYDIDEVVYDEDSPYQNIKILHSKQFGNILILSGDVNLAESDLAYTRAIMGSGKEDYTGKDVLILGGGDGGILCEIVKLKPKMVTMVEIDQMVIDGCKKYMRKTCGDVLDNLKGDCYQVLIEDCIPVLKRYAKEGREFDYVINDLTAVPISTSPEEDSTWEFLRLILDLSMKVLKQDGKYFTQGNCVNLTEALSLYEEQLGRLYCPVEFSKEIVCVPSYLELWVFYTVWKKAKP", "soluble on expression in E. coli": "soluble"}
{"sequence": "MDMKKWLVATALIATTISGVTQAKEWKTVRFGIEGAYPPFSWTEADGSLKGFDVDMANALCAEMQVECKIVPQDWDGIIPSLLARKYDAIIAAMSITEERKKKVDFTGKYAQIPNKFIAKKGADLAFTKEGLKGVKIGVQRATTHDKYITDNYGDTVDIVRYGSFDEAYLDLANGRIAAVLGDASALEEGMLNKPGGDAYEFVGPSLTDPKWFGEGMGIAVRKQDKELTEKLDAAITALREKGIYQQIQAKYFKYDVYGE", "soluble on expression in E. coli": "not soluble"}
